Laboratory results published in patent publication US20150098945A1 (Daiichi Sankyo, published 2015).

Key:
[1] = biological target: T1, N-terminal FLAG-tagged cynomolgus monkey ROBO4, cynoROBO4-2 (pCI-FLAG-cynoROBO4-2) (cynomolgus monkey, UniProt Q8WZ75 28-1007 (human entry)); assay: flow cytometry, HEK293 cells transfected with pCI-FLAG-cynoROBO4-2, antibody at 10 µg/mL, anti-mouse IgG FITC; control histogram IgG (Mouse IgG2a)
T1 chain: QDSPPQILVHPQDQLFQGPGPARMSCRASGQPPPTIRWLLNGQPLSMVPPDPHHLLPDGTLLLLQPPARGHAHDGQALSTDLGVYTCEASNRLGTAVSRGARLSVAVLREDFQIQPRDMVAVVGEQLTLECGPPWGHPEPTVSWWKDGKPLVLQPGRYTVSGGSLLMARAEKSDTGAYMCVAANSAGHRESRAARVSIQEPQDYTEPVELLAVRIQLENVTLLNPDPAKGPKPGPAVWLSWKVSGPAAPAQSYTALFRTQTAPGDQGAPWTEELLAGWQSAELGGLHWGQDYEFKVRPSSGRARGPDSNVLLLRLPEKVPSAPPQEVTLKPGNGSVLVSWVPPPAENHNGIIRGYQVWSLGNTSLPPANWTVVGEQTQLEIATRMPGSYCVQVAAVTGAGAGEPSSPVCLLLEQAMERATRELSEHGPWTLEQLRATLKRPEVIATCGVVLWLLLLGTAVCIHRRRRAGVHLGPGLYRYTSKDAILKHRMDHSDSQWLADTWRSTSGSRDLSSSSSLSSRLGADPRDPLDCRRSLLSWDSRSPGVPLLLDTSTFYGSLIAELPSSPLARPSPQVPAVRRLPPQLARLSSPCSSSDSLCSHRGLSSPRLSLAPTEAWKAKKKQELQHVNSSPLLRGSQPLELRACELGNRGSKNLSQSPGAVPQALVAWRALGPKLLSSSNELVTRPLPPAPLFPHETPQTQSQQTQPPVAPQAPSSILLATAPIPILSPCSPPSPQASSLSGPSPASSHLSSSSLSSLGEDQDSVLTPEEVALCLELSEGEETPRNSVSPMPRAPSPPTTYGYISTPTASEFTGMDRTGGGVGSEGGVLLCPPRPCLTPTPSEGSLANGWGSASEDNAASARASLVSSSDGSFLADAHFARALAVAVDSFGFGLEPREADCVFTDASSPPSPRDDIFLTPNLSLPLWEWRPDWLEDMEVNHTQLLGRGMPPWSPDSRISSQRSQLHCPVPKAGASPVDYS
Procedure: (§1) HEK293 cells were inoculated at a concentration of 1.5×10⁶ cells/dish to a 60-mm dish (manufactured by Corning Inc.) and cultured overnight in a DMEM medium containing 10% FBS at 37° C. under 5% CO₂ conditions. On the next day, the HEK293 cells were transfected with pCI-hROBO4, pCI-mROBO4, pCI-raROBO4, pCI-FLAG-cynoROBO4-1, pCI-FLAG-cynoROBO4-2, pCI-hROBO1, pCI-hROBO2, or pCI-hROBO3 using FuGENE6 Transfection Reagent and further cultured overnight at 37° C. under 5% CO₂ conditions. On the next day, the expression vector-transfected cells were treated with TrypLE Express (manufactured by Life Technologies Corp.), washed with PBS containing 5% FBS, and then suspended in PBS containing 5% FBS. The obtained cell suspension was used in flow cytometry analysis.
(§2) Each cell suspension prepared in 4)-3-1 was centrifuged, and the supernatant was removed. Then, MAb1 or a negative control Mouse IgG2a was added at a concentration of 10 μg/mL to 2×10⁵ expression vector-transfected cells, and the resulting suspension was left standing at 4° C. for 1 hour. […] Data was analyzed using Flowjo. The histogram of FITC fluorescence intensity was prepared. The antibody was determined to bind in a cross-species manner when the histogram of MAb1 was shifted to a stronger fluorescence intensity region compared with the histogram of the negative control Mouse IgG2a.

[2] = biological target: T2, full-length human ROBO4 (pCI-hROBO4-transfected HEK293/HEK293T cells) (human, UniProt Q8WZ75 28-1007); assay: flow cytometry, HEK293 cells transfected with pCI-hROBO4, antibody at 10 µg/mL, anti-mouse IgG FITC; control histogram IgG (Mouse IgG2a)
T2 sequence: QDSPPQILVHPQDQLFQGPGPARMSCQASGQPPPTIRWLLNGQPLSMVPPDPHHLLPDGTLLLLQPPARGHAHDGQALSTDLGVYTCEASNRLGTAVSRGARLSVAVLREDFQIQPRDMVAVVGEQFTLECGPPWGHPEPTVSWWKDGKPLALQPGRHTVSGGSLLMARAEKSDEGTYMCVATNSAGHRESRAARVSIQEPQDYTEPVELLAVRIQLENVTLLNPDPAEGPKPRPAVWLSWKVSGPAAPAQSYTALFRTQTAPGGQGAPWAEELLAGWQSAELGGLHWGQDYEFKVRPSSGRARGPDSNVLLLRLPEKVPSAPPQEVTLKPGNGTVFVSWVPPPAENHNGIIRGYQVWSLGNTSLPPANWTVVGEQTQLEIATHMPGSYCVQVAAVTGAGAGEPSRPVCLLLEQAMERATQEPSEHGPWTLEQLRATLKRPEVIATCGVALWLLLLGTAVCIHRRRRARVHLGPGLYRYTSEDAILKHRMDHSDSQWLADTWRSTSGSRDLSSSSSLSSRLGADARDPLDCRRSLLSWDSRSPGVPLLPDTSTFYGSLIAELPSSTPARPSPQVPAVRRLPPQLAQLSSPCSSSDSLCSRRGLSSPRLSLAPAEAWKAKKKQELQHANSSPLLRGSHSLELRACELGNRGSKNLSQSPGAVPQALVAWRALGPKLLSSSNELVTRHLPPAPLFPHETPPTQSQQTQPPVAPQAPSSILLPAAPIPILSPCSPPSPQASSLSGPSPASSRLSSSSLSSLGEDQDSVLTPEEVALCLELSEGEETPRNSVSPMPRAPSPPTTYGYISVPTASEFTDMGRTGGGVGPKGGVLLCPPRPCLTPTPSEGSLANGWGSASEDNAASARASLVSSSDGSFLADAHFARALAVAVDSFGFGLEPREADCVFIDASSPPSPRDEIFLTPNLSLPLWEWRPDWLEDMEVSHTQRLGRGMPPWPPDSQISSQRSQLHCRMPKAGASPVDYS
Procedure: as §1, §2

binding result [1]: binds
binding result [2]: binds
B1: anti-ROBO4 mouse monoclonal antibody MAb1 (antibody, mouse IgG1, V domains shown)
VH: EVQLVESGGGLVKPGGSLKLSCAASGFTFSTYAMSWVRQTPEKRLEWVATISNGGTYTYYPDSVKGRFTISRDNAENTLYLQMSSLRSEDTAMYFCARLIYYDYLDYWGHGTTLTVSS
VL: DAVMTQTPLSLPVSLGDQASISCRSSQSLENSNGNTYLNWYFQKPGQSPQLLIYRVSNRFSGVLDRFSGSGSGTDFTLKISRVEAEDFGVYFCLQVTHVPWTFGGGTKLEIKR
notes: Mouse IgG1 (gamma1), kappa light chain, purified from hybridoma supernatant; also called parent antibody MAb1
